Target: full-length Bacillus subtilis Rel (RelBs) (Bacillus subtilis)
Test: cell-based or functional assay

B1: Bacillus subtilis DarB (natural protein, UniProt O31698 1-147, looked up)
chain: MISLQSDQLLEATVGQFMIEADKVAHVQVGNNLEHALLVLTKTGYTAIPVLDPSYRLHGLIGTNMIMNSIFGLERIEFEKLDQITVEEVMLTDIPRLHINDPIMKGFGMVINNGFVCVENDEQVFEGIFTRRVVLKELNKHIRSLNK
  rate of ^3H-ppGpp hydrolysis by RelBs saturated with DarB: 5.5 fold
